# According to the supplement of paper PMC9233669:
# This sample holds only a part of the variants without activity.
# Experiments:
# biotinyl-Leu-oxazolone = experiment: self-aminoacylation, catalytic enhancement (BLO) (fold over background); higher = more active; k-Seq, kA / k0A0; sequences stand for … in GGGAAUGGAUCCACAUCUACGAAUUC…UUCACUGCAGACUUGACGAAGCUG
# Method in brief: (§1)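 Catalytic enhancement equals the median kA over the uncatalyzed rate, the latter read from the low-activity peak of a bimodal Gaussian fit. Values of kA came from fitting each sequence's fraction reacted to a pseudo-first-order model, with 1000 bootstraps. Reacted RNA was captured with streptavidin and quantified by triplicate qPCR and Illumina sequencing after 90 minutes at room temperature with 2–1250 μM biotinyl-aminoacyl-oxazolone and 0.43 μM mutagenized RNA pools bearing a 21-nt variable region.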
# biotinyl-Ile-oxazolone = experiment: self-aminoacylation, catalytic enhancement (BIO) (fold over background); higher = more active; k-Seq, kA / k0A0; sequences stand for … in GGGAAUGGAUCCACAUCUACGAAUUC…UUCACUGCAGACUUGACGAAGCUG
# Method in brief: as §1
# biotinyl-Met-oxazolone = experiment: self-aminoacylation, catalytic enhancement (BMO) (fold over background); higher = more active; k-Seq, kA / k0A0; sequences stand for … in GGGAAUGGAUCCACAUCUACGAAUUC…UUCACUGCAGACUUGACGAAGCUG
# Method in brief: as §1
# biotinyl-Val-oxazolone = experiment: self-aminoacylation, catalytic enhancement (BVO) (fold over background); higher = more active; k-Seq, kA / k0A0; sequences stand for … in GGGAAUGGAUCCACAUCUACGAAUUC…UUCACUGCAGACUUGACGAAGCUG
# Method in brief: as §1
# biotinyl-Phe-oxazolone = experiment: self-aminoacylation, catalytic enhancement (BFO) (fold over background); higher = more active; k-Seq, kA / k0A0; sequences stand for … in GGGAAUGGAUCCACAUCUACGAAUUC…UUCACUGCAGACUUGACGAAGCUG
# Method in brief: as §1
# biotinyl-Trp-oxazolone = experiment: self-aminoacylation, catalytic enhancement (BWO) (fold over background); higher = more active; k-Seq, kA / k0A0; sequences stand for … in GGGAAUGGAUCCACAUCUACGAAUUC…UUCACUGCAGACUUGACGAAGCUG
# Method in brief: as §1
sequence,measurement,setting,value
AUUACCCUGGUCAUCCCGUGA [Fam2.1 aminoacylation ribozyme variant],self-aminoacylation,biotinyl-Leu-oxazolone,9.66
same,self-aminoacylation,biotinyl-Ile-oxazolone,3.61
same,self-aminoacylation,biotinyl-Met-oxazolone,7.44
same,self-aminoacylation,biotinyl-Val-oxazolone,4.22
same,self-aminoacylation,biotinyl-Phe-oxazolone,43.3
same,self-aminoacylation,biotinyl-Trp-oxazolone,9.33
AUUGCCCUGGUCAUCGAGGGA [Fam2.1 aminoacylation ribozyme variant],self-aminoacylation,biotinyl-Leu-oxazolone,3.97
same,self-aminoacylation,biotinyl-Ile-oxazolone,1.93
same,self-aminoacylation,biotinyl-Met-oxazolone,3.9
same,self-aminoacylation,biotinyl-Val-oxazolone,2.22
same,self-aminoacylation,biotinyl-Phe-oxazolone,4.65
same,self-aminoacylation,biotinyl-Trp-oxazolone,3.16
AUUCCCCUAGGUCAUCGUGUG [Fam2.2 aminoacylation ribozyme variant],self-aminoacylation,biotinyl-Leu-oxazolone,4.37
same,self-aminoacylation,biotinyl-Ile-oxazolone,3.28
same,self-aminoacylation,biotinyl-Met-oxazolone,3.02
same,self-aminoacylation,biotinyl-Val-oxazolone,4.25
same,self-aminoacylation,biotinyl-Phe-oxazolone,20.7
same,self-aminoacylation,biotinyl-Trp-oxazolone,4.05
AAGUUUGCUAAGAAUCGCAAG [Fam3.1 aminoacylation ribozyme variant],self-aminoacylation,biotinyl-Leu-oxazolone,0.521
same,self-aminoacylation,biotinyl-Ile-oxazolone,0.583
same,self-aminoacylation,biotinyl-Met-oxazolone,0.503
same,self-aminoacylation,biotinyl-Val-oxazolone,0.58
same,self-aminoacylation,biotinyl-Phe-oxazolone,0.824
same,self-aminoacylation,biotinyl-Trp-oxazolone,0.588
AUUCACCUAGGUCUUCGGGUA [Fam2.2 aminoacylation ribozyme variant],self-aminoacylation,biotinyl-Leu-oxazolone,3.22
same,self-aminoacylation,biotinyl-Ile-oxazolone,3.31
same,self-aminoacylation,biotinyl-Met-oxazolone,3.75
same,self-aminoacylation,biotinyl-Val-oxazolone,3.6
same,self-aminoacylation,biotinyl-Phe-oxazolone,17.4
same,self-aminoacylation,biotinyl-Trp-oxazolone,3.79
AAGUUUGCUAAAAGUUGCAAG [Fam3.1 aminoacylation ribozyme variant],self-aminoacylation,biotinyl-Leu-oxazolone,0.968
same,self-aminoacylation,biotinyl-Ile-oxazolone,0.983
same,self-aminoacylation,biotinyl-Met-oxazolone,1.07
same,self-aminoacylation,biotinyl-Val-oxazolone,0.781
same,self-aminoacylation,biotinyl-Phe-oxazolone,1.18
same,self-aminoacylation,biotinyl-Trp-oxazolone,0.711
AAGUUUGAUCAUAGUCGCAAG [Fam3.1 aminoacylation ribozyme variant],self-aminoacylation,biotinyl-Leu-oxazolone,1.62
same,self-aminoacylation,biotinyl-Ile-oxazolone,1.69
same,self-aminoacylation,biotinyl-Met-oxazolone,1.55
same,self-aminoacylation,biotinyl-Val-oxazolone,1.76
same,self-aminoacylation,biotinyl-Phe-oxazolone,2.45
same,self-aminoacylation,biotinyl-Trp-oxazolone,1.2
AUUCACCUAUGUCAUCGGGUU [Fam2.2 aminoacylation ribozyme variant],self-aminoacylation,biotinyl-Leu-oxazolone,1.86
same,self-aminoacylation,biotinyl-Ile-oxazolone,1.35
same,self-aminoacylation,biotinyl-Met-oxazolone,1.48
same,self-aminoacylation,biotinyl-Val-oxazolone,1.61
same,self-aminoacylation,biotinyl-Phe-oxazolone,0.724
same,self-aminoacylation,biotinyl-Trp-oxazolone,1.75
AAGUUUGCUAUUAGUCGUAAG [Fam3.1 aminoacylation ribozyme variant],self-aminoacylation,biotinyl-Leu-oxazolone,0.851
same,self-aminoacylation,biotinyl-Ile-oxazolone,0.868
same,self-aminoacylation,biotinyl-Met-oxazolone,0.884
same,self-aminoacylation,biotinyl-Val-oxazolone,0.923
same,self-aminoacylation,biotinyl-Phe-oxazolone,0.987
same,self-aminoacylation,biotinyl-Trp-oxazolone,1.13
AUUCACCUAGUUCAUCAGGUG [Fam2.2 aminoacylation ribozyme variant],self-aminoacylation,biotinyl-Leu-oxazolone,0.986
same,self-aminoacylation,biotinyl-Ile-oxazolone,0.872
same,self-aminoacylation,biotinyl-Met-oxazolone,0.796
same,self-aminoacylation,biotinyl-Val-oxazolone,0.934
same,self-aminoacylation,biotinyl-Phe-oxazolone,0.467
same,self-aminoacylation,biotinyl-Trp-oxazolone,0.893
CCGCACUUCACGCAAUCGGUC [Fam1B.1 aminoacylation ribozyme variant],self-aminoacylation,biotinyl-Leu-oxazolone,2.34
same,self-aminoacylation,biotinyl-Ile-oxazolone,1.36
same,self-aminoacylation,biotinyl-Met-oxazolone,1.54
same,self-aminoacylation,biotinyl-Val-oxazolone,2.1
same,self-aminoacylation,biotinyl-Phe-oxazolone,1.66
same,self-aminoacylation,biotinyl-Trp-oxazolone,1.85
CUACUGCAAACAAUCGAUCUG [Fam1A.1 aminoacylation ribozyme variant],self-aminoacylation,biotinyl-Leu-oxazolone,0.663
same,self-aminoacylation,biotinyl-Ile-oxazolone,0.705
same,self-aminoacylation,biotinyl-Met-oxazolone,0.937
same,self-aminoacylation,biotinyl-Val-oxazolone,0.732
same,self-aminoacylation,biotinyl-Phe-oxazolone,0.699
same,self-aminoacylation,biotinyl-Trp-oxazolone,0.679
